Key:
[1] = biological target: ErNaR, NDQ rhodopsin (light-driven sodium pump) from Erythrobacter sp. HL-111 (Erythrobacter sp. HL-111); test: cryo-EM structure; single particle; 20 mM Tris pH 8.0, 200 mM NaCl, 0.05% DDM; C5 symmetry; 2.63 Å
[2] = biological target: ErNaR, NDQ rhodopsin (light-driven sodium pump) from Erythrobacter sp. HL-111 (Erythrobacter sp. HL-111); test: SEC; detergent-solubilized ErNaR, pH 8.0
[3] = biological target: ErNaR, NDQ rhodopsin (light-driven sodium pump) from Erythrobacter sp. HL-111 (Erythrobacter sp. HL-111); test: cryo-EM structure; single particle; 100 mM sodium acetate pH 4.3, 200 mM NaCl, 0.05% DDM; C5 symmetry; 2.50 Å
[4] = biological target: ErNaR, NDQ rhodopsin (light-driven sodium pump) from Erythrobacter sp. HL-111 (Erythrobacter sp. HL-111); test: SEC; detergent-solubilized ErNaR, pH 2.3

Measured: stoichiometry N

ErNaR, NDQ rhodopsin (light-driven sodium pump) from Erythrobacter sp. HL-111 (natural protein)
5: all assays above

— article PMC11006869
